# The supplement of paper PMC10065799, “High-throughput profiling of sequence recognition by tyrosine kinases and SH2 domains using bacterial peptide display” (eLife, 2023)
# Columns and labels:
# MERTK = MERTK (UniProt Q12866); assay: phosphorylation enrichment, bacterial display (enrichment ratio); higher = better substrate or ligand; peptides without Tyr show the background
# Fer (mouse) = assay: as above
# AncSZ = assay: as above
# FGFR1 = FGFR1 (UniProt P11362); assay: as above
# FGFR3 = FGFR3 (UniProt P22607); assay: as above
# EPHB1 = EPHB1 (UniProt P54762); assay: as above
# c-Src = assay: as above
# Fes = Fes (UniProt P07332); assay: as above
# Fyn = Fyn (UniProt P06241); assay: as above
# Hck = Hck (UniProt P08631); assay: as above
# c-Abl (mouse) = assay: as above
# EPHB2 = EPHB2 (UniProt P29323); assay: as above
# Jak2 = Jak2 (UniProt O60674); assay: as above
# SHP2-C SH2 = assay: SH2 binding enrichment of the phosphorylated peptide, bacterial display (enrichment ratio); higher = better substrate or ligand; peptides without Tyr show the background
# Grb2 SH2 = Grb2 SH2 (UniProt P62993); assay: as above
# c-Src SH2 = assay: as above
# 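For SH2 binding enrichment of the phosphorylated peptide, bacterial display in this document: peptide library displayed on the E. coli surface as eCPX fusions, selected cells deep-sequenced, score is each peptide's frequency after selection divided by its frequency in the input.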
# 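For phosphorylation enrichment, bacterial display in this document: 11-residue human phosphosite peptides and single-mutation variants displayed on the E. coli surface, counted by deep sequencing, each peptide's frequency after selection divided by its frequency in the unselected input library; frequency after pTyr selection over input frequency; kinase dosed for 20-30% of maximal phosphorylation in three min.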
# Fyn, sequence (P06241 whole entry, looked up): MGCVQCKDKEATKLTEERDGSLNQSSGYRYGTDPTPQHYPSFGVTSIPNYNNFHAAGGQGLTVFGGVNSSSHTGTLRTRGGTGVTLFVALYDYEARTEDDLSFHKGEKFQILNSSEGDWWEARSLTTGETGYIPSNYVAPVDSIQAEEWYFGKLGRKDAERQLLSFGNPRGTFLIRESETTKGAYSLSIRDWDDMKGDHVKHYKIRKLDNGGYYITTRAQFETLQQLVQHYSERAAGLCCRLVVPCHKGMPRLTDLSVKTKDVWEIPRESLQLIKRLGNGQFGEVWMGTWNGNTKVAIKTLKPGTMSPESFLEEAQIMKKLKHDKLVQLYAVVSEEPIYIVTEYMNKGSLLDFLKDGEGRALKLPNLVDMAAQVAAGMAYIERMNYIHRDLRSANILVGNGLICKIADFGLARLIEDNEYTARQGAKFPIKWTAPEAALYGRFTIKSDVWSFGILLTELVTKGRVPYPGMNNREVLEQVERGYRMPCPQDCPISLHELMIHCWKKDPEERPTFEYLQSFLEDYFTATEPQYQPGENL
# EPHB2, sequence (P29323 whole entry, looked up): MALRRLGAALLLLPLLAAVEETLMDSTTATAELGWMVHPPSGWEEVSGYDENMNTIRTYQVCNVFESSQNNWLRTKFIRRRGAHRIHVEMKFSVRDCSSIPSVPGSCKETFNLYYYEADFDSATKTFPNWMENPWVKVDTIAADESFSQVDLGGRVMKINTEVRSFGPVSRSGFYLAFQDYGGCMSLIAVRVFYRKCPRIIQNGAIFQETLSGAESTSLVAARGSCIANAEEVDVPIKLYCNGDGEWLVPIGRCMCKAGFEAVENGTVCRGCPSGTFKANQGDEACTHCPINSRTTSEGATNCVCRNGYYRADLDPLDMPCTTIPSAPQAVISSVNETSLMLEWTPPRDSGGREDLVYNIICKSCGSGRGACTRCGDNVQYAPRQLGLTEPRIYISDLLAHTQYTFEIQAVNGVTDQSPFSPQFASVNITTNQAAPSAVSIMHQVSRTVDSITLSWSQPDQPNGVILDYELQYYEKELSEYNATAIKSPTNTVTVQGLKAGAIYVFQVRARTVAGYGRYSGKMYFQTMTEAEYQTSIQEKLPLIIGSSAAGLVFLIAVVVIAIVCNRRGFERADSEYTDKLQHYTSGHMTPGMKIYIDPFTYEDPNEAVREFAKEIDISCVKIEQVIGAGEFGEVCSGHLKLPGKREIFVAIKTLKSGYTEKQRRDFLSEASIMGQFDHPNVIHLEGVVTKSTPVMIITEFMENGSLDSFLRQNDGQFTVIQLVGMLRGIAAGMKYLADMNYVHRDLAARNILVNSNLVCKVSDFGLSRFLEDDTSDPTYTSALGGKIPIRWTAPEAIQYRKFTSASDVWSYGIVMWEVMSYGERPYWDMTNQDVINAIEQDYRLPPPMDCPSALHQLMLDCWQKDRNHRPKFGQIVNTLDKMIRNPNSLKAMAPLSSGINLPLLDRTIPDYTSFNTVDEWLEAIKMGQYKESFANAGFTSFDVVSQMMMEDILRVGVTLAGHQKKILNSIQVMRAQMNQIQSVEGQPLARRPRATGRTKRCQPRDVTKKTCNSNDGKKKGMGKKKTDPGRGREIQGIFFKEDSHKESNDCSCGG
# MERTK, sequence (Q12866 whole entry, looked up): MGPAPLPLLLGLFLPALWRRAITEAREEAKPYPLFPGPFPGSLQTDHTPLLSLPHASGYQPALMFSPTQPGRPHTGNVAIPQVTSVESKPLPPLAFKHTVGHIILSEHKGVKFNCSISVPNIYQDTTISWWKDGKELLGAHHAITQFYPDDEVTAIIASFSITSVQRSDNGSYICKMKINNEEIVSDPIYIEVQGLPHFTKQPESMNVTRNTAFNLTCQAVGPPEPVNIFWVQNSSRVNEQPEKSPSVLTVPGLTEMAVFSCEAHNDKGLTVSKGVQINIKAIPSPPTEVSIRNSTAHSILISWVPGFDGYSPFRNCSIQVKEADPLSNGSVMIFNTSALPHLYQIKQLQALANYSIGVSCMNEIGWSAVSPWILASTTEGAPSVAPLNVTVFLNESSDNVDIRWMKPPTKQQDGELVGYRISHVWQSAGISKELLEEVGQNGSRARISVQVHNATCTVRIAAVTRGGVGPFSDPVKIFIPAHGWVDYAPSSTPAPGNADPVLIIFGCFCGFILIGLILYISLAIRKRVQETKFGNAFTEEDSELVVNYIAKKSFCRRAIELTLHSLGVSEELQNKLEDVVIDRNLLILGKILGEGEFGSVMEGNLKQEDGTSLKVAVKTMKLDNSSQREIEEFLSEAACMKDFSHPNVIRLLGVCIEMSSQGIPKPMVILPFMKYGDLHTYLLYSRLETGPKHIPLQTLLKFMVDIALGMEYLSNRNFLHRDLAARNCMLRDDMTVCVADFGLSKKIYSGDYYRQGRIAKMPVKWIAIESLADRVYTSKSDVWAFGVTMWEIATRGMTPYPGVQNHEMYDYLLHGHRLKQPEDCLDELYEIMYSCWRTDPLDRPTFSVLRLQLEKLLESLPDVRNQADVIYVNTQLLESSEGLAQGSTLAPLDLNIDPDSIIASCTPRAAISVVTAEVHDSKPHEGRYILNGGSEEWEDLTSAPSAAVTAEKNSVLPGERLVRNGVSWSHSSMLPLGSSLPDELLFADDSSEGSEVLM
# EPHB1, sequence (P54762 whole entry, looked up): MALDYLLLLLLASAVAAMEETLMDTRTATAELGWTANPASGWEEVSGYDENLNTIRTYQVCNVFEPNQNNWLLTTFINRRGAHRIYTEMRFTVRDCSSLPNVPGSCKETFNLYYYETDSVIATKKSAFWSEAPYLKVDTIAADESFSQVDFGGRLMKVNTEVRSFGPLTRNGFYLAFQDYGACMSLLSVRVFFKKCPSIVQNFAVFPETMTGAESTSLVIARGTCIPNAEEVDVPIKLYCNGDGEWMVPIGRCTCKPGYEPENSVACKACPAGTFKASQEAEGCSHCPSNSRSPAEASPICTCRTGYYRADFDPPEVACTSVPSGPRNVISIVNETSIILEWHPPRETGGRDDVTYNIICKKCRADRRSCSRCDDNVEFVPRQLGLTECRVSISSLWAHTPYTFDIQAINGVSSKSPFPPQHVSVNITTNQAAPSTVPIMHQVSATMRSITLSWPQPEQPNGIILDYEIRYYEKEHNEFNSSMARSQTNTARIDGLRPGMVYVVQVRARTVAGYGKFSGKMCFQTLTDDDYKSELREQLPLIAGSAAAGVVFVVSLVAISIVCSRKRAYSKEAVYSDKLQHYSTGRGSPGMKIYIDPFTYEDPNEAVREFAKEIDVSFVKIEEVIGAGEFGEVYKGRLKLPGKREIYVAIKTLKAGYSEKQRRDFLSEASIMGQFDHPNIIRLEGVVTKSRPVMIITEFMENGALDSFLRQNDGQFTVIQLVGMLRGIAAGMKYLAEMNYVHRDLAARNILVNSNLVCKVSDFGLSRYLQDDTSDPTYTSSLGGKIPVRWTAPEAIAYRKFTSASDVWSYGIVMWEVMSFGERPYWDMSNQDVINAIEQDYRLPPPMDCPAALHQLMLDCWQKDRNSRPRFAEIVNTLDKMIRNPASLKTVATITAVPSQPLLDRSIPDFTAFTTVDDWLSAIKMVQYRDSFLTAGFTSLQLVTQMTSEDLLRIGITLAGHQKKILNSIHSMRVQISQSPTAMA
# Hck, sequence (P08631 whole entry, looked up): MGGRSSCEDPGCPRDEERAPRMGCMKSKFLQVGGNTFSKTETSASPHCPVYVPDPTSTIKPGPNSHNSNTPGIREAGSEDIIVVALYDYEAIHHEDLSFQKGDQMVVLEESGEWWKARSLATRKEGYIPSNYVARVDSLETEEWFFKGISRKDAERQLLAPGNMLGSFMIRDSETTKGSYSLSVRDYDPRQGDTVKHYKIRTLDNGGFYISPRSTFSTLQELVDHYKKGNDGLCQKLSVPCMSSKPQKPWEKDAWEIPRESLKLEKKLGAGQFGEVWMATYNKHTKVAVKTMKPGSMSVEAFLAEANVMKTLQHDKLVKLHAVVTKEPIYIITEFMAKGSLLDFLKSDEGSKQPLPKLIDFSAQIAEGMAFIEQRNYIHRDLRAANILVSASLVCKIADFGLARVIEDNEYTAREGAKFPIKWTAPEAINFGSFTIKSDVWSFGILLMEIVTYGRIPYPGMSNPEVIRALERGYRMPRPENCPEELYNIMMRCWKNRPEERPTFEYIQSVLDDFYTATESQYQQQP
# FGFR3, sequence (P22607 whole entry, looked up): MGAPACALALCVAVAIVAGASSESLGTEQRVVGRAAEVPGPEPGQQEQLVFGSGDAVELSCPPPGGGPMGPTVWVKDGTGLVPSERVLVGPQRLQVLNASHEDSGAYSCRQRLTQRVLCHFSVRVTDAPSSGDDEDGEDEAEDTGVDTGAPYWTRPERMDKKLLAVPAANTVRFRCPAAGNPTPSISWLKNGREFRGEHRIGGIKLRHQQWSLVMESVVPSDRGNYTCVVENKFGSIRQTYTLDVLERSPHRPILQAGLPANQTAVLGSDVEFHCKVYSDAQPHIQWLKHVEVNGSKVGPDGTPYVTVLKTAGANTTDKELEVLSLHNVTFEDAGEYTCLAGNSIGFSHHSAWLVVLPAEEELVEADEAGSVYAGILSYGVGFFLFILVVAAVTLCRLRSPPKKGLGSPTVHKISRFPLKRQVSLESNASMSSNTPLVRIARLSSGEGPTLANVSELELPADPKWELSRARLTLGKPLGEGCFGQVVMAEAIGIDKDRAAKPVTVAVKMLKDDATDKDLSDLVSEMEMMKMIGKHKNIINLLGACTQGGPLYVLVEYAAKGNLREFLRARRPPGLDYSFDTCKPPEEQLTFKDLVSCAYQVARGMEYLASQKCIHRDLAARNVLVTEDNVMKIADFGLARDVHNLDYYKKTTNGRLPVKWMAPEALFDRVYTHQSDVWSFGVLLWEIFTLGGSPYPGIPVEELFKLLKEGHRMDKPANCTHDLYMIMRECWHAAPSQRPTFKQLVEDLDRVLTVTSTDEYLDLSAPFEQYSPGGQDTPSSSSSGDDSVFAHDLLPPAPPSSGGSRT
SH2 binding enrichment (SHP2-C SH2),SH2 binding enrichment (Grb2 SH2),SH2 binding enrichment (c-Src SH2),Sequence,phosphorylation enrichment (MERTK),phosphorylation enrichment (Fer (mouse)),phosphorylation enrichment (AncSZ),phosphorylation enrichment (FGFR1),phosphorylation enrichment (FGFR3),phosphorylation enrichment (EPHB1),phosphorylation enrichment (c-Src),phosphorylation enrichment (Fes),phosphorylation enrichment (Fyn),phosphorylation enrichment (Hck),phosphorylation enrichment (c-Abl (mouse)),phosphorylation enrichment (EPHB2),phosphorylation enrichment (Jak2)
1.02,1.04,0.619,NTQRPYFKGGG [TYROBP_Y111_YF],0.454,0.437,0.533,0.364,0.467,0.429,0.461,0.613,0.428,0.326,0.574,0.372,0.904
0.678,0.888,0.508,QHVPDYRQNVF [PCDHGA1_Y890_YF],0.54,0.578,0.889,0.59,0.704,0.583,0.572,1.03,0.602,0.585,0.798,0.597,0.991
0.566,0.722,0.533,HSGVSYYINLC [IGF2R_Y2024_N2020S],0.563,0.951,1.59,0.849,1.09,1.15,0.488,1.93,0.661,0.729,1.21,0.942,2.38
0.679,1.04,0.569,QLLIEYPPEEV [ZZZ3_Y670_K669E],0.622,0.671,1.36,0.659,0.833,0.788,0.44,1.31,0.618,0.534,1.03,0.933,1.27

# Second part, the sequence before the results:
Sequence,SH2 binding enrichment (SHP2-C SH2),SH2 binding enrichment (Grb2 SH2),SH2 binding enrichment (c-Src SH2),phosphorylation enrichment (MERTK),phosphorylation enrichment (Fer (mouse)),phosphorylation enrichment (AncSZ),phosphorylation enrichment (FGFR1),phosphorylation enrichment (FGFR3),phosphorylation enrichment (EPHB1),phosphorylation enrichment (c-Src),phosphorylation enrichment (Fes),phosphorylation enrichment (Fyn),phosphorylation enrichment (Hck),phosphorylation enrichment (c-Abl (mouse)),phosphorylation enrichment (EPHB2),phosphorylation enrichment (Jak2)
VHNLDYYKQTT [FGFR3_Y647_K650Q],0.752,0.984,0.49,0.607,0.525,0.934,1.36,1.34,0.686,0.697,0.955,0.586,0.485,0.555,0.617,0.945
PTATSYNPNLA [GABRA1_Y375_T376N],0.82,0.847,0.617,1.06,0.824,1.39,0.864,0.878,0.808,1.43,1.34,0.748,0.621,1.57,0.607,1.55
KKKKQYKGKYL [CASK_Y708_D710G],0.302,0.669,0.436,0.629,0.444,0.667,0.474,0.584,0.502,0.75,0.582,0.57,0.513,0.529,0.54,0.507
MNPPPYSQFLS [FGF23_Y154],0.489,0.742,0.541,0.543,0.711,0.585,0.508,0.567,0.467,1.38,0.706,0.478,0.511,0.536,0.44,0.687
PSRKDYETYQP [CTNND2_Y1154],0.818,0.905,0.597,0.6,0.485,1.04,0.592,0.695,1.49,0.62,1.02,0.55,0.873,0.95,2.62,0.677
